# Measured values reported in US20140044735A1 (ISNERM INSTITUT NATIONAL DE LA SANTE ET DE LA RECHERCHE …, published 2014).
# “And” between values parts separate entries of the source, which are not always exact repeats. Equal values may be shown once.
# T1: CD47 on mouse erythrocytes (wild type and SAD transgenic mice) (mouse, UniProt Q61735 19-303)
# T1 sequence (looked up): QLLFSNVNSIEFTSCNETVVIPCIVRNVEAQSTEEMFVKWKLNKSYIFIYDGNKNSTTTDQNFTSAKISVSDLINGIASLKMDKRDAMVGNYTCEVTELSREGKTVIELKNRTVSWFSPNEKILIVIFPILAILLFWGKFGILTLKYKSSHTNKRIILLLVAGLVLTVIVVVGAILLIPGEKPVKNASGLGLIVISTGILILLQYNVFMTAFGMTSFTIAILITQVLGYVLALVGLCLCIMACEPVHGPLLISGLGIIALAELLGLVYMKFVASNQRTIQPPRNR
# B1: 4N1-1 synthetic peptide (RFYVVMWK), TSP1 carboxyterminal peptide (peptide)
# peptide: RFYVVMWK
# Legend:
# [1] = biological target: CD47 on mouse erythrocytes (wild type and SAD transgenic mice) (mouse) (UniProt Q61735); test: cell-based or functional assay
# [2] = biological target: CD47 on mouse erythrocytes (wild type and SAD transgenic mice) (mouse) (UniProt Q61735); test: flow cytometry of fresh mouse erythrocytes stained with the FITC-coupled antibody
# [3] = biological target: T1, CD47 on mouse erythrocytes (wild type …); test: cell-based or functional assay
molecule,measurement,setting,value
Human recombinant TSP1 (thrombospondin-1) (from UniProt P07996 19-1170) (ligand),echinocytes among SAD mouse erythrocytes under shear,[1],50%
same,proportion of echinocytes among wild type mouse erythrocytes under shear,[1],> 10 fold and 30%
mouse-specific fluoroisothiocyanate (FITC)-coupled anti-CD47 monoclonal antibody (clone mIAP301; BD Biosciences),CD47 expression by FACS (percent),[2],85%
B1,MP shedding by SAD mouse erythrocytes,[3],40 fold
same,MP shedding by wild type mouse erythrocytes,[3],16 fold
same,echinocytosis of wild type mouse erythrocytes,[3],2 fold
